Data as given in article PMC4526367, “Weak Interactions between Salmonella enterica FlhB and Other Flagellar Export Apparatus Proteins Govern Type III Secretion Dynamics” (PLoS ONE, 2015).
Read-outs that look alike come from different tables or passages of the source.

How the values were obtained:
[1] = molecular target: FlhB cytoplasmic domain (Salmonella enterica) (UniProt P40727); test: SPR; settings: cited from earlier work
[2] = molecular target: cytoplasmic domain of FlhA (FlhAC) (UniProt P40729); test: BLI; FlhAC ligand on streptavidin sensors, FlhBC analyte 2, 1, 0.5, 0.25 and 0.125 uM; HBS-T, 25°C; one-state association fits, global two-state dissociation fit, steady state analysis, kobs vs [FlhBC]
[3] = molecular target: cytoplasmic domain of FlhA (FlhAC) (UniProt P40729); test: as above; remark: listed apart in the source
FliK = FliK (UniProt P26416); test: BLI
FliI [4] = molecular target: T1, FliI (UniProt P26465 1-456, biotin by amine crosslinking (NHS-LC-LC-biotin) when used as ligand); test: BLI; settings: both partners purified
T1 construct: source: E. coli BL21DE3(pLysS), purified (Talon IMAC, gel filtration into HBS-T)
T1 sequence: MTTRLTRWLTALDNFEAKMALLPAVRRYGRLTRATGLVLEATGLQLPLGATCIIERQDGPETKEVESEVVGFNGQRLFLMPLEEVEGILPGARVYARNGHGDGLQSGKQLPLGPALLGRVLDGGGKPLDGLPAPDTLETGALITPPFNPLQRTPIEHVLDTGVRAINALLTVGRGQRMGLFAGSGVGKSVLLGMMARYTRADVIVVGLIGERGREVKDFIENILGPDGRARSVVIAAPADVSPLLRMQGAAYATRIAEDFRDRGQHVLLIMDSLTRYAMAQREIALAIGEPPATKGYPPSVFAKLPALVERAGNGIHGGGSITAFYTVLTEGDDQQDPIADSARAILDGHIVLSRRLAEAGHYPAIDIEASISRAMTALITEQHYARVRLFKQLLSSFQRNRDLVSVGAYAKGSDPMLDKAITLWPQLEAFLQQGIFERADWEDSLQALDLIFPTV

FliI [5] = molecular target: T1, FliI; test: BLI; FlhBC ligand on streptavidin sensors, FliI analyte 4, 2, 1, 0.5 and 0.25 uM without ATP; HBS-T, 25°C; global one-state association-then-dissociation model; settings: both partners purified
[6] = molecular target: T2, full-length wild-type FlhB (Salmonella enterica, UniProt P40727); test: BLI; settings: both partners purified
T2 construct: also called FlhB from pMM9; source: overproduced from pMM9, purified under nondenaturing conditions from solubilized crude membrane fractions
T2 sequence 1: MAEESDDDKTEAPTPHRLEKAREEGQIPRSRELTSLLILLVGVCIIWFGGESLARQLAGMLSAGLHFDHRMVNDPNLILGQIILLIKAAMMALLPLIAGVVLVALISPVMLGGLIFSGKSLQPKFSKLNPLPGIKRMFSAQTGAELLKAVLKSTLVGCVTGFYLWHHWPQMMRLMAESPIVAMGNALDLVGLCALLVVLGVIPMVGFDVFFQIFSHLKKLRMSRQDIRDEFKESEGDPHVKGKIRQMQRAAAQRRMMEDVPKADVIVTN
T2 sequence 2: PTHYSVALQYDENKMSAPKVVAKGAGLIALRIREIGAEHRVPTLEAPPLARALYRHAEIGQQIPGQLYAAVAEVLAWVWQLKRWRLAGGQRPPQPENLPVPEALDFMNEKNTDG

[7] = molecular target: the molecule itself; test: AUC; sedimentation equilibrium, buffer with 33 mM C8E5, scans at 280 nm; fit to a single-species model

Sequence of cytoplasmic domain of FlhA (FlhAC) (P40729 whole entry, the tested form may be a part): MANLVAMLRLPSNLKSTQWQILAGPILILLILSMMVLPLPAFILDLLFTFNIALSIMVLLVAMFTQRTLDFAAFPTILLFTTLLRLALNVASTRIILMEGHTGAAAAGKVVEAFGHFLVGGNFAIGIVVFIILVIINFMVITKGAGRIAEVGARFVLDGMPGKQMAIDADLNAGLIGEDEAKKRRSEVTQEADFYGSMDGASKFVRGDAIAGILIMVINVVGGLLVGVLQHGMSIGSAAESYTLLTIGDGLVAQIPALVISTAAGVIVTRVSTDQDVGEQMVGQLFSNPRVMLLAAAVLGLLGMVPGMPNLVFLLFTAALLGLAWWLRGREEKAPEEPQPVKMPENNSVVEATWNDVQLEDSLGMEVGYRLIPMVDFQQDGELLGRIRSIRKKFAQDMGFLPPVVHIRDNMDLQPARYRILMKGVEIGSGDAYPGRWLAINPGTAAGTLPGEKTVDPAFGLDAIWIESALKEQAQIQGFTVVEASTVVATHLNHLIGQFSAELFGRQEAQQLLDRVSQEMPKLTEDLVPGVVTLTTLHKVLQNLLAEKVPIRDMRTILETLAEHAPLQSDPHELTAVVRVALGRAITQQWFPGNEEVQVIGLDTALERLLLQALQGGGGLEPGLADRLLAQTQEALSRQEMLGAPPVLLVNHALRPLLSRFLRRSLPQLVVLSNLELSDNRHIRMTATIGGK
Sequence of FliK (UniProt P26416) (P26416 whole entry): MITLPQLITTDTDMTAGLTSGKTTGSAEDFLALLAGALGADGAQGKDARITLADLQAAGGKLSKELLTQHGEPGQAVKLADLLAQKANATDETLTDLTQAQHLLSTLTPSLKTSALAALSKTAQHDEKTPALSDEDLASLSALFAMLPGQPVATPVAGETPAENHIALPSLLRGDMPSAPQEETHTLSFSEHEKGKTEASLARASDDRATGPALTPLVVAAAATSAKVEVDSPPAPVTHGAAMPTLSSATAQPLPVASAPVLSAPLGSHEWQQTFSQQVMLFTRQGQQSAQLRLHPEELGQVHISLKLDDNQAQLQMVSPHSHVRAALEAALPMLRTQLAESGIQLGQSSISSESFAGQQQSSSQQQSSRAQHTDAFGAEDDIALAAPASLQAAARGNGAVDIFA

## FliK (from UniProt P26416)
[1]
  Kd: 3200 nM

## cytoplasmic domain of FlhB (FlhBC) (from UniProt P40727 212-383) (domain or fragment)
[2]
  Kd: 1100 nM
  koff, fast state of the global two-state dissociation fit: 0.13 s⁻¹
  koff, slow state of the global two-state dissociation fit: 0.0047 s⁻¹
[3]
  Kd: 1000 nM
  koff: 0.085 s⁻¹
  kon: 85000 M⁻¹ s⁻¹
FliK
  KD of the initial binding event: 8000 nM
  Kd: 2100 nM
  k1 (observed rate constant of initial binding) at 1 uM FlhBC: 0.05 s⁻¹
  k1 (observed rate constant of initial binding) at 2 uM FlhBC: 0.1 s⁻¹
  k1 (observed rate constant of initial binding) at 3 uM FlhBC: 0.2 s⁻¹
  k1 (observed rate constant of initial binding) at 4 uM FlhBC: 0.25 s⁻¹
  k1 (observed rate constant of initial binding) at 5 uM FlhBC: 0.25 s⁻¹
  k2 (dissociation of AB to the free proteins), simulation at 1 uM FlhBC: 0.44 s⁻¹
  k2 (dissociation of AB to the free proteins), simulation at 2 uM FlhBC: 0.44 s⁻¹
  k2 (dissociation of AB to the free proteins), simulation at 3 uM FlhBC: 0.44 s⁻¹
  k2 (dissociation of AB to the free proteins), simulation at 4 uM FlhBC: 0.44 s⁻¹
  k2 (dissociation of AB to the free proteins), simulation at 5 uM FlhBC: 0.44 s⁻¹
  k3 (shift from AB to AB*), simulation at 1 uM FlhBC: 0.0085 s⁻¹
  k3 (shift from AB to AB*), simulation at 2 uM FlhBC: 0.0085 s⁻¹
  k3 (shift from AB to AB*), simulation at 3 uM FlhBC: 0.0085 s⁻¹
  k3 (shift from AB to AB*), simulation at 4 uM FlhBC: 0.0085 s⁻¹
  k3 (shift from AB to AB*), simulation at 5 uM FlhBC: 0.0085 s⁻¹
  k4 (shift from AB* to AB), simulation at 1 uM FlhBC: 0.008 s⁻¹
  k4 (shift from AB* to AB), simulation at 2 uM FlhBC: 0.008 s⁻¹
  k4 (shift from AB* to AB), simulation at 3 uM FlhBC: 0.008 s⁻¹
  k4 (shift from AB* to AB), simulation at 4 uM FlhBC: 0.008 s⁻¹
  k4 (shift from AB* to AB), simulation at 5 uM FlhBC: 0.008 s⁻¹
  koff of the initial binding event: 0.44 s⁻¹
  kon of the initial binding event: 55000 M⁻¹ s⁻¹

B1: cytoplasmic domain of FlhB (FlhBC) (domain or fragment)
chain: QIFSHLKKLRMSRQDIRDEFKESEGDPHVKGKIRQMQRAAAQRRMMEDVPKADVIVTNPTHYSVALQYDENKMSAPKVVAKGAGLIALRIREIGAEHRVPTLEAPPLARALYRHAEIGQQIPGQLYAAVAEVLAWVWQLKRWRLAGGQRPPQPENLPVPEALDFMNEKNTDG
modifications: biotin by amine crosslinking (NHS-LC-LC-biotin) when used as ligand
notes: source: E. coli BL21DE3(pLysS), purified (Talon IMAC, gel filtration into HBS-T)
FliI [4]
  Kd: 1100 nM
FliI [5]
  Kd: 84 nM
  koff: 0.0015 s⁻¹
  kon: 18000 M⁻¹ s⁻¹

B2: FliH (natural protein)
chain: MSNELPWQVWTPDDLAPPPETFVPVEADNVTLTEDTPEPELTAEQQLEQELAQLKIQAHEQGYNAGLAEGRQKGHAQGYQEGLAQGLEQGQAQAQTQQAPIHARMQQLVSEFQNTLDALDSVIASRLMQMALEAARQVIGQTPAVDNSALIKQIQQLLQQEPLFSGKPQLRVHPDDLQRVEEMLGATLSLHGWRLRGDPTLHHGGCKVSADEGDLDASVATRWQELCRLAAPGVL
modifications: biotin by amine crosslinking (NHS-LC-LC-biotin) when used as ligand
notes: as for B1
[6]
  KD with the 2 μM sample included: 900 nM
  Kd: 800 nM

B3: full-length FlhB(N269A), uncleavable variant (natural protein)
chain: MAEESDDDKTEAPTPHRLEKAREEGQIPRSRELTSLLILLVGVCIIWFGGESLARQLAGMLSAGLHFDHRMVNDPNLILGQIILLIKAAMMALLPLIAGVVLVALISPVMLGGLIFSGKSLQPKFSKLNPLPGIKRMFSAQTGAELLKAVLKSTLVGCVTGFYLWHHWPQMMRLMAESPIVAMGNALDLVGLCALLVVLGVIPMVGFDVFFQIFSHLKKLRMSRQDIRDEFKESEGDPHVKGKIRQMQRAAAQRRMMEDVPKADVIVTAPTHYSVALQYDENKMSAPKVVAKGAGLIALRIREIGAEHRVPTLEAPPLARALYRHAEIGQQIPGQLYAAVAEVLAWVWQLKRWRLAGGQRPPQPENLPVPEALDFMNEKNTDG
[7]
  stoichiometry N: 2
